For four molecules, pKd results are on record in article PMC9482650, “Quantitative fragmentomics allow affinity mapping of interactomes” (Nature Communications, 2022).

Among the targets are MAGI1_6, Q96QZ7; PARD3B_2, Q8TEW8; PARD3_1, Q8TEW0; RGS3, P49796-9; TJP1_1, Q07157; CNKSR3, Q6P9H4.
Holding throughout (assay): holdup assay
Holding throughout (design): key: below the threshold = too weak to quantify, mostly under pKd 3.1 to 4

The target in the next test is T1, GRIP1_1, Q9Y3R0.
T1 sequence (Q9Y3R0 48-146, limits assumed, looked up): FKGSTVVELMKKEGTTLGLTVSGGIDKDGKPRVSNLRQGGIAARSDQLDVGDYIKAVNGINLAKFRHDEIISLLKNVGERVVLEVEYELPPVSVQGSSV

For a further test, the target named is T2, INTU, Q9ULD6.
T2 sequence (Q9ULD6 180-273, limits assumed, looked up): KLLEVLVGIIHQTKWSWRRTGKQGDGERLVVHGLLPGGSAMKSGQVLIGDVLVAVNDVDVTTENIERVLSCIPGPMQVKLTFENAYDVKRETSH
The following applies: plain residues with an end cap or a label only (N-terminal biotin on a linker: (peg)3).

For a further test, the target named is T3, MLLT4, P55196.
T3 sequence (P55196 1002-1103, limits assumed, looked up): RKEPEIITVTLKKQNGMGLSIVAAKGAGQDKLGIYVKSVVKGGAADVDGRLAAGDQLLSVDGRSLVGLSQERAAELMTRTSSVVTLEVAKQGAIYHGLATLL

The next test concerns the target T4, MPDZ_6, O75970.
T4 sequence (O75970 1003-1099, limits assumed, looked up): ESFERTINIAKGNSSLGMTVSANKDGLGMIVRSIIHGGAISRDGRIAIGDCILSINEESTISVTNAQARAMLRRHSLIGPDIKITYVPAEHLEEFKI

A further test has as its target T5, NHERF1_2, O14745.
T5 sequence (O14745 149-244, limits assumed, looked up): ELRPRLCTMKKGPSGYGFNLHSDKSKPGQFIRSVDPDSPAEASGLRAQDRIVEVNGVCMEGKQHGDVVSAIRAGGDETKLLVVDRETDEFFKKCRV

Another test addresses T6, PARD6B, Q9BYG5.
T6 sequence (Q9BYG5 152-260, limits assumed, looked up): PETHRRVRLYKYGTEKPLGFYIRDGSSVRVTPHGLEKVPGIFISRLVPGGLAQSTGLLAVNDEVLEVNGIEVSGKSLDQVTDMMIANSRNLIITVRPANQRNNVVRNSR
Particulars: plain residues with an end cap or a label only (N-terminal biotin on a linker: (peg)3).

The target in another test is T7, PDZD2_5, O15018.
T7 sequence (O15018 2617-2716, limits assumed, looked up): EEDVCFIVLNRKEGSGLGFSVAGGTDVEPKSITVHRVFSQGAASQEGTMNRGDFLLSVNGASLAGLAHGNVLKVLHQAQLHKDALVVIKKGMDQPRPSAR

The target of the next test is T8, PDZD7_1, Q9H5P4.
T8 sequence (Q9H5P4 81-178, limits assumed, looked up): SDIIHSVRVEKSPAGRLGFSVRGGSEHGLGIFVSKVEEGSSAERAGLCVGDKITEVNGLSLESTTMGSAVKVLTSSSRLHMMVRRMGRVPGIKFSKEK

Another test has as its target T9, PDZD8, Q8NEN9.
T9 sequence (Q8NEN9 361-459, limits assumed, looked up): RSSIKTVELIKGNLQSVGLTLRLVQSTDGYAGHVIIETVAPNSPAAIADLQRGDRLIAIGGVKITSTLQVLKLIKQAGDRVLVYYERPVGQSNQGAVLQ

The next test has as its target PDZD9, Q8IXQ8. Particulars: plain residues with an end cap or a label only (N-terminal biotin on a linker: (peg)3).
The target in the next test is T10, PTPN13_4, Q12923.
T10 sequence (Q12923 1783-1878, limits assumed, looked up): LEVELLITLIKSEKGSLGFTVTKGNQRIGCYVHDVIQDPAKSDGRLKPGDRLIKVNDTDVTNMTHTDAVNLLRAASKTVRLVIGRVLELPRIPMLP

A further test concerns the target T11, PTPN4, P29074.
T11 sequence (P29074 512-599, limits assumed, looked up): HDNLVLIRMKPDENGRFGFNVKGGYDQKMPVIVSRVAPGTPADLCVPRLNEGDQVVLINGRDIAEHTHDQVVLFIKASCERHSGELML

Another test has as its target T12, SHROOM2, Q13796.
T12 sequence (Q13796 21-118, limits assumed, looked up): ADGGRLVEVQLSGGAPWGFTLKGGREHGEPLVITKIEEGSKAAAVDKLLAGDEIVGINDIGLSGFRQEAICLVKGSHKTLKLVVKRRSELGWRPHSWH

The target of another test is T13, SHROOM4, Q9ULL8.
T13 sequence (Q9ULL8 5-102, limits assumed, looked up): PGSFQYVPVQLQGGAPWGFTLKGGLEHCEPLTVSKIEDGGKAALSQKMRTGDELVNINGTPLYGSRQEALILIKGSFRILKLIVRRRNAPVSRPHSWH

Another test concerns the target T14, SNTB2, Q13425.
T14 sequence (Q13425 110-208, limits assumed, looked up): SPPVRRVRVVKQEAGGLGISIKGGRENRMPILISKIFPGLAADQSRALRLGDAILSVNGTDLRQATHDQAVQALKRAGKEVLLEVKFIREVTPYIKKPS
Particulars: plain residues with an end cap or a label only (N-terminal biotin on a linker: (peg)3).

The target of a further test is T15, USH1C_2, Q9Y6N9.
T15 sequence (Q9Y6N9 206-303, limits assumed, looked up): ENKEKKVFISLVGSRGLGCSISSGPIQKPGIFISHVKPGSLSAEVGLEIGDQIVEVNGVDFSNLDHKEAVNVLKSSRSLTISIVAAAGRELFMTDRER

[1] abbreviates: plain residues with an end cap or a label only (N-terminal biotin on a linker: (peg)3).
Setting [2] is: modified: phospho on T at position -2 from the C-terminal residue.

Sequence of PDZD9, Q8IXQ8 (Q8IXQ8 23-120): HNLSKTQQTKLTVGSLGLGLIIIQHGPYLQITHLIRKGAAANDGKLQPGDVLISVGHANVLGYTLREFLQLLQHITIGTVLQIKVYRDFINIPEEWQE
Sequence of TJP1_1, Q07157 (Q07157 18-120): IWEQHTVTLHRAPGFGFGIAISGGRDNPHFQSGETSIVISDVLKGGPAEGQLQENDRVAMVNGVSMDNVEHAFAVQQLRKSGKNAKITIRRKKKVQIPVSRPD
Sequence of CNKSR3, Q6P9H4 (Q6P9H4 203-303): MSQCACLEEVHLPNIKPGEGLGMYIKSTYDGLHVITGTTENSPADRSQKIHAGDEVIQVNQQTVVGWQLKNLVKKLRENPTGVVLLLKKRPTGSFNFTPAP
Sequence of MAGI1_6, Q96QZ7 (Q96QZ7 1146-1238): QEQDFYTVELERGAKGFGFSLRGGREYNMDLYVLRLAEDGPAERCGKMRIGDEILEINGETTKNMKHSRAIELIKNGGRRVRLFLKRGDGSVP
Sequence of PARD3_1, Q8TEW0 (Q8TEW0 264-372): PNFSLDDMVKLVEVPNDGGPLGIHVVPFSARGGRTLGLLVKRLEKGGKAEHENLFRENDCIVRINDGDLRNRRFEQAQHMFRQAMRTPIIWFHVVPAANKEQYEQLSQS
Sequence of RGS3, P49796-9 (P49796 other isoform, or with tags, fused parts or gaps): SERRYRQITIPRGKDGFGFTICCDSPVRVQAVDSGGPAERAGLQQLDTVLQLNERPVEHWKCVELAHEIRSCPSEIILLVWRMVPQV
Sequence of PARD3B_2, Q8TEW8 (Q8TEW8 376-471): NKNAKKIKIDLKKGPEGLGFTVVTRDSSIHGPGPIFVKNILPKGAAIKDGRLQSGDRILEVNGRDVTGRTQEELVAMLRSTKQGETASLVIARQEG

B1: WNV-NS5, Q9Q6P4 (peptide)
chain: RYEDTTLVEDTVL
In the case of B1, the pKd entry in the test with GRIP1_1, Q9Y3R0 (setting [1]) is “below the threshold”; in the test with INTU, Q9ULD6 it was “below the threshold”; with MAGI1_6, Q96QZ7 (setting [1]), “below the threshold”; with MLLT4, P55196 (setting [1]), “below the threshold”; with MPDZ_6, O75970 (setting [1]), 3.94; with NHERF1_2, O14745 (setting [1]) it was “below the threshold”. Also, the pKd entry is “below the threshold” with PARD3B_2, Q8TEW8 (setting [1]); “below the threshold” with PARD3_1, Q8TEW0 (setting [1]); “below the threshold” in the test with PARD6B, Q9BYG5; “below the threshold” with PDZD2_5, O15018 (setting [1]); “below the threshold” with PDZD7_1, Q9H5P4 (setting [1]); “below the threshold” with PDZD8, Q8NEN9 (setting [1]). For the same molecule, the pKd result was “below the threshold” in the test with PDZD9, Q8IXQ8; “below the threshold” with PTPN13_4, Q12923 (setting [1]); “below the threshold” with PTPN4, P29074 (setting [1]); “below the threshold” in the test with RGS3, P49796-9 (setting [1]); 4.14 in the test with SHROOM2, Q13796 (setting [1]); “below the threshold” with SHROOM4, Q9ULL8 (setting [1]). Further, the pKd entry in the test with SNTB2, Q13425 is on record as “below the threshold”; with TJP1_1, Q07157 (setting [1]) it was “below the threshold”; in the test with USH1C_2, Q9Y6N9 (setting [1]), “below the threshold”.

B2: HBV-HBc, P03193 (peptide)
chain: RRRRSQSRESQC
In the case of B2, the pKd entry with CNKSR3, Q6P9H4 (setting [1]) was “below the threshold”; with GRIP1_1, Q9Y3R0 (setting [1]), “below the threshold”; with INTU, Q9ULD6, “below the threshold”; with MAGI1_6, Q96QZ7 (setting [1]) it was “below the threshold”; in the test with MLLT4, P55196 (setting [1]), “below the threshold”; in the test with MPDZ_6, O75970 (setting [1]), “below the threshold”. For the same molecule, the pKd with NHERF1_2, O14745 (setting [1]) is 3.96; with PARD3B_2, Q8TEW8 (setting [1]), 3.85; with PARD3_1, Q8TEW0 (setting [1]) it was “below the threshold”; in the test with PARD6B, Q9BYG5, “below the threshold”; in the test with PDZD7_1, Q9H5P4 (setting [1]), “below the threshold”; with PDZD8, Q8NEN9 (setting [1]) it was “below the threshold”. In addition, the pKd entry in the test with PDZD9, Q8IXQ8 was “below the threshold”; in the test with PTPN13_4, Q12923 (setting [1]) it was “below the threshold”; in the test with PTPN4, P29074 (setting [1]), 4.94; in the test with RGS3, P49796-9 (setting [1]), “below the threshold”; with SHROOM2, Q13796 (setting [1]), “below the threshold”; with SHROOM4, Q9ULL8 (setting [1]), “below the threshold”. Moreover, the pKd with SNTB2, Q13425 is 4.58; with TJP1_1, Q07157 (setting [1]), “below the threshold”; with USH1C_2, Q9Y6N9 (setting [1]), 4.09.

B3: SARS-Cov2-N, P0DTC9 (peptide)
chain: QQSMSSADSTQA
Regarding B3, the pKd entry with CNKSR3, Q6P9H4 (setting [1]) is “below the threshold”; in the test with GRIP1_1, Q9Y3R0 (setting [1]), “below the threshold”; with INTU, Q9ULD6, “below the threshold”; with MAGI1_6, Q96QZ7 (setting [1]), “below the threshold”; with MLLT4, P55196 (setting [1]), “below the threshold”; with MPDZ_6, O75970 (setting [1]) it was “below the threshold”. Moreover, the pKd result with NHERF1_2, O14745 (setting [1]) is listed as “below the threshold”; with PARD3B_2, Q8TEW8 (setting [1]) it was “below the threshold”; with PARD3_1, Q8TEW0 (setting [1]), “below the threshold”; in the test with PARD6B, Q9BYG5, “below the threshold”; with PDZD2_5, O15018 (setting [1]) it was “below the threshold”; with PDZD7_1, Q9H5P4 (setting [1]) it was “below the threshold”. Further, the pKd entry with PDZD8, Q8NEN9 (setting [1]) was “below the threshold”; with PDZD9, Q8IXQ8, “below the threshold”; with PTPN13_4, Q12923 (setting [1]), “below the threshold”; with PTPN4, P29074 (setting [1]), “below the threshold”; with RGS3, P49796-9 (setting [1]), “below the threshold”; with SHROOM2, Q13796 (setting [1]), “below the threshold”. In addition, the pKd entry in the test with SHROOM4, Q9ULL8 (setting [1]) was “below the threshold”; with SNTB2, Q13425 it was “below the threshold”; with TJP1_1, Q07157 (setting [1]), “below the threshold”; in the test with USH1C_2, Q9Y6N9 (setting [1]) it was “below the threshold”.

B4: HPV16-E6_-2P, P03126 (peptide)
chain: SSRTRRETQL
In the case of B4, the pKd entry was “below the threshold” with CNKSR3, Q6P9H4 (setting [2]); 4.61 in the test with GRIP1_1, Q9Y3R0 (setting [2]); “below the threshold” with MAGI1_6, Q96QZ7 (setting [2]); “below the threshold” in the test with MLLT4, P55196 (setting [2]); “below the threshold” with MPDZ_6, O75970 (setting [2]); “below the threshold” with NHERF1_2, O14745 (setting [2]). Further, the pKd result in the test with PARD3B_2, Q8TEW8 (setting [2]) is reported as “below the threshold”; with PARD3_1, Q8TEW0 (setting [2]) it was “below the threshold”; with PDZD2_5, O15018 (setting [2]) it was “below the threshold”; with PDZD7_1, Q9H5P4 (setting [2]), “below the threshold”; in the test with PDZD8, Q8NEN9 (setting [2]), “below the threshold”; with PTPN13_4, Q12923 (setting [2]) it was “below the threshold”. Also, the pKd result was “below the threshold” with PTPN4, P29074 (setting [2]); “below the threshold” with RGS3, P49796-9 (setting [2]); “below the threshold” with SHROOM2, Q13796 (setting [2]); “below the threshold” in the test with SHROOM4, Q9ULL8 (setting [2]); “below the threshold” with TJP1_1, Q07157 (setting [2]); 4.45 with USH1C_2, Q9Y6N9 (setting [2]).
